{"source": "paper doi:10.1101/2025.01.21.634112", "key": {"[1]": {"target": "Monodelphis domestica von Willebrand Factor (VWF) (Monodelphis domestica)"}, "[2]": {"target": "human von Willebrand Factor (VWF) (human) (UniProt P04275)"}}, "data": [{"substance": "botrocetin from Bothrops jararaca (complex)", "values": [{"measurement": "reduction in the overall extent of platelet adhesion to collagen under flow (60 dyn/cm^2, 10 min) in opossum PRP with 4 ug/mL botrocetin, compared to the negative control", "setting": "[1]", "result": 39, "unit": "%"}, {"measurement": "reduction in the overall extent of platelet adhesion to collagen under flow (60 dyn/cm^2, 10 min) in human PRP with 4 ug/mL botrocetin, compared to the negative control", "setting": "[2]", "result": 66, "unit": "%"}]}]}
